Test results published in PMC11286949, “Structural basis of tRNA recognition by the widespread OB fold”.

Tests used:
Trbp111 [1] = target: T1, Trbp111 (Aquifex aeolicus, UniProt O66738 1-111); assay: competition fluorescence polarization; ITC (Arc1p): 25 mM Tris-HCl pH 7.4, 150 mM NaCl, 2 mM MgCl2, 25 °C. FP and competition FP: 25 mM Tris-HCl pH 7.5, 150 mM NaCl (Arc1p) or 50 mM NaCl (Trbp111), 2 mM MgCl2, room temperature; conditions: protein: recombinant, tags: His-MBP removed (PreScission), chain copies: 2
Arc1p dN [2] = target: T2, Arc1p dN (Saccharomyces cerevisiae, UniProt P46672 132-376, del1-131); assay: as above; conditions: protein: recombinant, tags: His-MBP removed
T2 sequence: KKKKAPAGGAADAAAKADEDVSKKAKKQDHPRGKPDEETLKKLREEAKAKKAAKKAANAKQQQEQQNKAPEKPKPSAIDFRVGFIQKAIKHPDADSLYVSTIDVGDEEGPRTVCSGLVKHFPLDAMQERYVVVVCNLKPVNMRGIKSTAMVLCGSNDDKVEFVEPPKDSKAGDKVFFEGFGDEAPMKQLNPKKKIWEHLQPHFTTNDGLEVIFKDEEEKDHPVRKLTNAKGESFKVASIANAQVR

Arc1p = target: T3, Arc1p (Saccharomyces cerevisiae, UniProt P46672 1-376); assay: as above; conditions: protein: recombinant, tags: His-MBP removed
T3 sequence: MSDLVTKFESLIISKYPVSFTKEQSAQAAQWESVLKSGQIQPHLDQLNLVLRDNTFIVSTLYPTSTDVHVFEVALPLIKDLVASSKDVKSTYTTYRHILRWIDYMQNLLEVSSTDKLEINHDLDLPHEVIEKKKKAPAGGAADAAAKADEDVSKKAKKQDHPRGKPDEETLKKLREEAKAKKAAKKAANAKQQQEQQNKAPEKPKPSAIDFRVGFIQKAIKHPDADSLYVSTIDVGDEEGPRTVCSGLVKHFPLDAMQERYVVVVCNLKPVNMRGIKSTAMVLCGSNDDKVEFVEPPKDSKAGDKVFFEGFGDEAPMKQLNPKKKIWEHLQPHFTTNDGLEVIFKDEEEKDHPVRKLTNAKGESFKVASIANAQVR

Arc1p dN [3] = target: T2, Arc1p dN; assay: ITC; ITC (Arc1p): 25 mM Tris-HCl pH 7.4, 150 mM NaCl, 2 mM MgCl2, 25 °C. FP and competition FP: 25 mM Tris-HCl pH 7.5, 150 mM NaCl (Arc1p) or 50 mM NaCl (Trbp111), 2 mM MgCl2, room temperature; conditions: protein: recombinant, tags: His-MBP removed
Trbp111 [4] = target: T1, Trbp111; assay: competition FP; vs fluorescein-tRNATyr; FP: 25 mM Tris-HCl pH 7.5, 2 mM MgCl2, 50 mM NaCl (Trbp111) or 150 mM NaCl (Arc1p), room temperature; ITC: 25 mM Tris-HCl pH 7.4, 150 mM NaCl, 2 mM MgCl2, 25 C; conditions: protein: recombinant; tags: His-MBP removed (PreScission); chain copies: 2; single strand

T1 sequence (O66738 entry or part of it): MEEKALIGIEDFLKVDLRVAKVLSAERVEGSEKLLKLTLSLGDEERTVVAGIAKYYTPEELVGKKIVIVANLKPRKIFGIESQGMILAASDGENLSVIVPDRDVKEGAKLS

Binder: AGGCUUGGGUGGUUCAAGUCCACUCAGGCCUACA (structured_RNA) [MiniH dC74]
- IC50 (Trbp111 [1]; hairpin): 5.06 ± 0.269 µM
- IC50 (Arc1p dN [2]; hairpin): 3.03 ± 0.158 µM

Binder: AGGCUUGGGUGGUUCAAGUCCACUCAGGCCUCCA (structured_RNA) [MiniH dA73]
- IC50 (Trbp111 [1]; hairpin): 5.21 ± 0.817 µM
- IC50 (Arc1p dN [2]; hairpin): 2.45 ± 0.511 µM

Binder: AGGCUUCGAAAGAGGCCUACCA (structured_RNA) [MicroH GAAA loop]
- IC50 (Trbp111 [1]; hairpin): 5.92 ± 0.188 µM
- IC50 (Arc1p dN [2]; hairpin): 13.4 ± 5.38 µM

B1: tRNAIle ASL-GAAA dACCA 3bp (structured_RNA)
RNA: GGCGGGCUUGUAGCUCAGGUGGUUAGAGCGCACCGCGAAAGCGGUGAGGUCGGUGGUUCAAGUCCACUCAGGCCCGCC
- IC50 (Arc1p dN [2]): 0.681 ± 0.201 µM
- IC50 (Arc1p): 9.92 µM

B2: tRNATyr G17C/G18C (structured_RNA)
RNA: GGUGGGGUUCCCGAGCCCCCAAAGGGAGCAGACUGUAAAUCUGCCGUCAUCGACUUCGAAGGUUCGAAUCCUUCCCCCACCACCA
- IC50 (Arc1p dN [2]): 0.652 ± 0.0471 µM
- IC50 (Arc1p): 4.52 µM

Binder: AGGCUUGGGUGGUUUUUUUCCACUCAGGCCUACCA (structured_RNA) [MiniH ULoop]
- IC50 (Arc1p dN [2]): 3.95 ± 0.248 µM

Binder: AGGCUUGGGUGGUUCAAGUCCACUCAGGCCU (structured_RNA) [MiniH dACCA]
- binding result (Trbp111 [1]; hairpin): no binding
- IC50 (Arc1p dN [2]; hairpin): 10.5 ± 2.82 µM

Binder: AGGCUUGGGUGGUUCAAGUCCACUCAGGCCUACCAUUUU (structured_RNA) [MiniH +UUUU]
- binding result (Trbp111 [1]; hairpin): no binding
- IC50 (Arc1p dN [2]; hairpin): 9.39 ± 0.782 µM

Binder: CCACUCAGGCCU (ssRNA) [ssRNA dACCA]
- binding result (Trbp111 [1]; single strand): no binding

Binder: AGGCUUGGGUGGUUCAAGUCCACUCAGGCCUACAA (structured_RNA) [MiniH-ACAA]
- IC50 (Arc1p dN [2]): 3.08 ± 0.63 µM

Binder: AGGCUUGGGUGGUUCAAGUCCACUCAGGCCUACCA (mixed, four terminal deoxyriboses) [MiniH DNA tail]
- IC50 (Trbp111 [1]; hairpin): 7.51 ± 1.02 µM

Binder: AGGCUUGGGUGGUUCAAGUCCACUCAGGCCUACUA (structured_RNA) [MiniH-ACUA]
- IC50 (Arc1p dN [2]): 2.6 ± 0.397 µM

Binder: AGGCUUGGGUGGUUCAAGUCCACUCAGGCCUACAC (structured_RNA) [MiniH-ACAC]
- IC50 (Arc1p dN [2]; hairpin): 3.92 ± 0.672 µM

Binder: AGGCUUGGGUGGUUCAAGUCCACUCAGGCCUACGA (structured_RNA) [MiniH-ACGA]
- IC50 (Arc1p dN [2]): 4.83 ± 0.11 µM

B3: tRNAIle 3'UGGU (structured_RNA)
RNA: AGGCUUGUAGCUCAGGUGGUUAGAGCGCACCCCUGAUAAGGGUGAGGUCGGUGGUUCAAGUCCACUCAGGCCUUGGU
- Kd (Arc1p dN [3]; tRNA fold): 0.654 ± 0.165 µM

B4: tRNAIle G18C/G19C (A1, Suppl. Fig. 13b) (structured_RNA)
RNA: AGGCUUGUAGCUCAGGUCCUUAGAGCGCACCCCUGAUAAGGGUGAGGUCGGUGGUUCAAGUCCACUCAGGCCUACCA
- IC50 (Arc1p dN [2]): 0.804 ± 0.107 µM

B5: tRNAIle G18C/G19C (G1, Fig. 5a) (structured_RNA)
RNA: GGGCUUGUAGCUCAGGUCCUUAGAGCGCACCCCUGAUAAGGGUGAGGUCGGUGGUUCAAGUCCACUCAGGCCUACCA
- Kd (Arc1p dN [3]; elbow disrupted): 3.33 µM

B6: tRNAIle ASL-GAAA/dACCA (structured_RNA)
RNA: GGGCUUGUAGCUCAGGUGGUUAGAGCGCACCGCGAAAGCGGUGAGGUCGGUGGUUCAAGUCCACUCAGGCCC
- Kd (Arc1p dN [3]; tRNA fold): 1.75 ± 0.958 µM

B7: human mascRNA (structured_RNA)
RNA: GAUGCUGGUGGUUGGCACUCCUGGUUUCCAGGACGGGGUUCAAAUCCCUGCGGCGUCUCCA
- IC50 (Arc1p dN [2]; tRNA-like): 0.377 ± 0.0571 µM
- IC50 (Arc1p; tRNA-like): 1.14 ± 0.127 µM

Binder: ACCACUCACGCCU (ssRNA) [ssRNA 5'ACCA]
- binding result (Trbp111 [1]; single strand): no binding

B8: tRNAIle ASL-GAAA (structured_RNA)
RNA: GGGCUUGUAGCUCAGGUGGUUAGAGCGCACCGCGAAAGCGGUGAGGUCGGUGGUUCAAGUCCACUCAGGCCUACCA
- Kd (Arc1p dN [3]; tRNA fold): 0.252 ± 0.11 µM

Binder: AGGCUUUUCAAGUAGGCCUUGGU (structured_RNA) [MicroH 3'UGGU]
- IC50 (Arc1p dN [2]): 15.3 ± 3.31 µM

B9: tRNAIle ASL-GAAA/5'GGCC (structured_RNA)
RNA: GGCCGGGCUUGUAGCUCAGGUGGUUAGAGCGCACCGCGAAAGCGGUGAGGUCGGUGGUUCAAGUCCACUCAGGCCC
- Kd (Arc1p dN [3]; palindromic tail, strong dimer): 3.3 µM

Binder: AGGCUUCGAAAGAGGCCUUGGU (structured_RNA) [MicroH UGGU]
- binding result (Trbp111 [1]; hairpin): no binding
- IC50 (Arc1p dN [2]; hairpin): 43 ± 7.65 µM

B10: S. cerevisiae tRNAAsp (G1-C72) (structured_RNA)
RNA: GCCGUGAUAGUUUAAUGGUCAGAAUGGGCGCUUGUCGCGUGCCAGAUCGGGGUUCAAUUCCCCGUCGCGGCGCCA
- IC50 (Arc1p dN [2]): 0.402 ± 0.0538 µM
- IC50 (Arc1p): 1.71 ± 0.125 µM

Binder: AGGCUUGGGUGCGAAAGCACUCAGGCCUACCA (structured_RNA) [MiniH LoopGAAA]
- IC50 (Arc1p dN [2]): 3.06 ± 0.0821 µM

B11: tRNATyr ASL-GAAA dACCA 6bp (structured_RNA)
RNA: GGGCCCGGUGGGGUUCCCGAGCGGCCAAAGGGAGCAGACGAAAGUCUGCCGUCAUCGACUUCGAAGGUUCGAAUCCUUCCCCCACCGGGCCC
- IC50 (Arc1p dN [2]): 1.02 ± 0.224 µM
- IC50 (Arc1p): 5.11 µM

B12: MiniH dLoop+6bp (dsRNA)
RNA 1: GCAUGACCACUCAGGCCUACCA
RNA 2: AGGCUUGGGUGGUUAUGC
- IC50 (Arc1p dN [2]): 3.47 ± 0.263 µM

B13: tRNAIle ASL-GAAA/5'GC (structured_RNA)
RNA: GCGGGCUUGUAGCUCAGGUGGUUAGAGCGCACCGCGAAAGCGGUGAGGUCGGUGGUUCAAGUCCACUCAGGCCC
- Kd (Arc1p dN [3]; palindromic tail, weak dimer): 1.5 ± 0.283 µM

Binder: CCACUCAGGCCUACCA (ssRNA) [ssRNA 3'ACCA]
- IC50 (Trbp111 [1]; single strand): 8.63 ± 0.796 µM
- IC50 (Trbp111 [4]): 8.2 ± 0.8 µM

B14: tRNAIle G18C/G19C/dACCA (structured_RNA)
RNA: GGGCUUGUAGCUCAGGUCCUUAGAGCGCACCCCUGAUAAGGGUGAGGUCGGUGGUUCAAGUCCACUCAGGCCC
- Kd (Arc1p dN [3]; elbow disrupted): 2.79 ± 0.304 µM

B15: tRNAIle dACCA (structured_RNA)
RNA: GGGCUUGUAGCUCAGGUGGUUAGAGCGCACCCCUGAUAAGGGUGAGGUCGGUGGUUCAAGUCCACUCAGGCCC
- Kd (Arc1p dN [3]; tRNA fold): 2.1 ± 0.985 µM

B16: MiniH dLoop+4bp (dsRNA)
RNA 1: GUGACCACUCAGGCCUACCA
RNA 2: AGGCUUGGGUGGUUAC
- IC50 (Arc1p dN [2]): 3.9 ± 0.124 µM

B17: tRNAIle d3'A (structured_RNA)
RNA: AGGCUUGUAGCUCAGGUGGUUAGAGCGCACCCCUGAUAAGGGUGAGGUCGGUGGUUCAAGUCCACUCAGGCCUACC
- Kd (Arc1p dN [3]; tRNA fold): 1.04 ± 0.295 µM

B18: MiniH dLoop+2bp (dsRNA)
RNA 1: GACCACUCAGGCCUACCA
RNA 2: AGGCUUGGGUGGUC
- IC50 (Arc1p dN [2]): 4.66 ± 1.43 µM

B19: MiniH dLoop (dsRNA)
RNA 1: CCACUCAGGCCUACCA
RNA 2: AGGCUUGGGUGG
- IC50 (Arc1p dN [2]): 2.26 ± 1.21 µM

Binder: AGGCUUUUCAAGUAGGCCU (structured_RNA) [MicroH dACCA]
- IC50 (Arc1p dN [2]; hairpin): 53.7 ± 5.22 µM
